Data published in the supplement of paper PMC10065799, “High-throughput profiling of sequence recognition by tyrosine kinases and SH2 domains using bacterial peptide display” (eLife, 2023).

Experiments:
EPHB2 = EPHB2 (UniProt P29323); test: phosphorylation enrichment, bacterial display (enrichment ratio); higher = better substrate or ligand; peptides without Tyr show the background
c-Abl (mouse) = test: as above
Fer (mouse) = test: as above
Fyn = Fyn (UniProt P06241); test: as above
Jak2 = Jak2 (UniProt O60674); test: as above
Jak2, sequence (O60674 whole entry, looked up): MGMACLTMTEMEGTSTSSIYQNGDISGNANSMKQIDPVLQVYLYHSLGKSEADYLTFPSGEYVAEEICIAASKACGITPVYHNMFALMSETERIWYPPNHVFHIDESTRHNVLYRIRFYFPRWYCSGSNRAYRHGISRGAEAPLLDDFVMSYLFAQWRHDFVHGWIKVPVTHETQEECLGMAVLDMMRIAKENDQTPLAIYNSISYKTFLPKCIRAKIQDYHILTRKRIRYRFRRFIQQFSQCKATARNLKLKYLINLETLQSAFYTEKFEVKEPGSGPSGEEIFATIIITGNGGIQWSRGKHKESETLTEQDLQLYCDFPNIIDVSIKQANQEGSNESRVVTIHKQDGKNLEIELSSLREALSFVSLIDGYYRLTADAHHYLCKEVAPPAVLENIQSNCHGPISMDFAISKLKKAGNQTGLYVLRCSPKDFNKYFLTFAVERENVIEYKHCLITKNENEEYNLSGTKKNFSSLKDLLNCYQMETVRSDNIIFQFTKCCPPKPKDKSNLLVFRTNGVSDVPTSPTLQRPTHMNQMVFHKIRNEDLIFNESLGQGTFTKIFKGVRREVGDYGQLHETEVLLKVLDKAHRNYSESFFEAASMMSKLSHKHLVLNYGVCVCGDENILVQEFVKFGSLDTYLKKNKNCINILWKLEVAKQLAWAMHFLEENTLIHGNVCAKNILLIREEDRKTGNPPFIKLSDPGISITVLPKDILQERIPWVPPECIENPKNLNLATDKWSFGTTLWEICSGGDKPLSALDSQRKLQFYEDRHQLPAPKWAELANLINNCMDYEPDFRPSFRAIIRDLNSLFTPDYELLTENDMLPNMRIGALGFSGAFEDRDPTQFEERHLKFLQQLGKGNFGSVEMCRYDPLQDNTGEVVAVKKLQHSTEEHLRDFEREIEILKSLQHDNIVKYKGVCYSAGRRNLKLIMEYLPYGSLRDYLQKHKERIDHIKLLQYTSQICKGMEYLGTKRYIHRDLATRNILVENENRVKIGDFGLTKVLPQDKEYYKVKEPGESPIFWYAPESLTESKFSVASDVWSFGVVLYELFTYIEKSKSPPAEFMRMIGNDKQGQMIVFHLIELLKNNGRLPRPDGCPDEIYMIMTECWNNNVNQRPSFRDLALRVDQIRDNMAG

EPHB1 = EPHB1 (UniProt P54762); test: as above
FGFR1 = FGFR1 (UniProt P11362); test: as above
FGFR1, sequence (P11362 whole entry, looked up): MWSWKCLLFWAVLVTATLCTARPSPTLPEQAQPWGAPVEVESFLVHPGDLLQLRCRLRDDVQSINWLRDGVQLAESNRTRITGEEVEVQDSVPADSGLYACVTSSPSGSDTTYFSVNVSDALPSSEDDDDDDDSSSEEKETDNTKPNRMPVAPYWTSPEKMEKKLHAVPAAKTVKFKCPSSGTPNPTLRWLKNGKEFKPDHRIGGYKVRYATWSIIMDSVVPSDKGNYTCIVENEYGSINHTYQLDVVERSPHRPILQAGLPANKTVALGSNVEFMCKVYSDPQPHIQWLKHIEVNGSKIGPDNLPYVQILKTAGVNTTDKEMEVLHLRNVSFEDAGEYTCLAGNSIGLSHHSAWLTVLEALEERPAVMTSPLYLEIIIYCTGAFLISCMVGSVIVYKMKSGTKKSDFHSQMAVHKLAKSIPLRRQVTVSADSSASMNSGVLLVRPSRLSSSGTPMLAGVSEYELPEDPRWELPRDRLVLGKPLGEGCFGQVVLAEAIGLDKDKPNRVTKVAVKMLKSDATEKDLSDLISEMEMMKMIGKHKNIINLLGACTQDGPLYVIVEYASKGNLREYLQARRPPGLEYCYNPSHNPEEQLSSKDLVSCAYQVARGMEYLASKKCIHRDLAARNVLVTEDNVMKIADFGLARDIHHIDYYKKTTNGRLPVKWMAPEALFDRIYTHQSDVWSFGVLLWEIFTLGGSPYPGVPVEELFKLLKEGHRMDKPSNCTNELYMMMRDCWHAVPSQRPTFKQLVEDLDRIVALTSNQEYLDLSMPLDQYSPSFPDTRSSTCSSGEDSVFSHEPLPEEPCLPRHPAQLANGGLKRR

FGFR3 = FGFR3 (UniProt P22607); test: as above
FGFR3, sequence (P22607 whole entry, looked up): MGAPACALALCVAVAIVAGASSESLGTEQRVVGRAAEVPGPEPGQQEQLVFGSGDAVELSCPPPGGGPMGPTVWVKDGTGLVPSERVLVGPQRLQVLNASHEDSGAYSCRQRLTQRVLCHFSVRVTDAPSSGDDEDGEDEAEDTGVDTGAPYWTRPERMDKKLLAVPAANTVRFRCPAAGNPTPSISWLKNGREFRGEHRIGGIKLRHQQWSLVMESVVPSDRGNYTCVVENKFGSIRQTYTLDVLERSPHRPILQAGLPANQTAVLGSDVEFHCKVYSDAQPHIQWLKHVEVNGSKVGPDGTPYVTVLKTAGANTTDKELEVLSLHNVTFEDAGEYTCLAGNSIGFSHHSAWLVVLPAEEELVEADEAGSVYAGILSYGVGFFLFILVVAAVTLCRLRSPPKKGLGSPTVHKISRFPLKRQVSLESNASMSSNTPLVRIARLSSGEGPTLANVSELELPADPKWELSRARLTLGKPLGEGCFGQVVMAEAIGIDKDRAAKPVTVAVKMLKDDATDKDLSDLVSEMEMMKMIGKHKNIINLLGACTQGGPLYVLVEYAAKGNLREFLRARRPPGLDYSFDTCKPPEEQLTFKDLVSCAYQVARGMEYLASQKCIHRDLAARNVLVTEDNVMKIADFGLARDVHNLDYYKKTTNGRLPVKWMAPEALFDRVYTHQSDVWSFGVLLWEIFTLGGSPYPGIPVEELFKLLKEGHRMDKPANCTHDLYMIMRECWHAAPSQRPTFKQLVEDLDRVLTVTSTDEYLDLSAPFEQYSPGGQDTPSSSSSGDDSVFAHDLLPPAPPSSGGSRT

AncSZ = test: as above
Hck = Hck (UniProt P08631); test: as above
Hck, sequence (P08631 whole entry, looked up): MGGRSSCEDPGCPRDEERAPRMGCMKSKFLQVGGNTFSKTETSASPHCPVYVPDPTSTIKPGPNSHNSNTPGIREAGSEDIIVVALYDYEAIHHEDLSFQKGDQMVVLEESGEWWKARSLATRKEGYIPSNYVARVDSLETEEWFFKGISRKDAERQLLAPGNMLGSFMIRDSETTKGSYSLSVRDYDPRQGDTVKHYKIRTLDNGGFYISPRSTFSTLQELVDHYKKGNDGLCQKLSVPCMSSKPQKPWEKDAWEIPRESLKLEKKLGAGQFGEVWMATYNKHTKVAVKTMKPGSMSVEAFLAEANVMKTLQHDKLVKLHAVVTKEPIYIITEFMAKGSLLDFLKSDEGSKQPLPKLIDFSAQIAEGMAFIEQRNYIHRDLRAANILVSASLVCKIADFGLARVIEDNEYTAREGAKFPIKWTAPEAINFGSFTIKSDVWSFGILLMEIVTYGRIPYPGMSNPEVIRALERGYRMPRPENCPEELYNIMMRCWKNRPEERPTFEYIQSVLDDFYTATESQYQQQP

MERTK = MERTK (UniProt Q12866); test: as above
MERTK, sequence (Q12866 whole entry, looked up): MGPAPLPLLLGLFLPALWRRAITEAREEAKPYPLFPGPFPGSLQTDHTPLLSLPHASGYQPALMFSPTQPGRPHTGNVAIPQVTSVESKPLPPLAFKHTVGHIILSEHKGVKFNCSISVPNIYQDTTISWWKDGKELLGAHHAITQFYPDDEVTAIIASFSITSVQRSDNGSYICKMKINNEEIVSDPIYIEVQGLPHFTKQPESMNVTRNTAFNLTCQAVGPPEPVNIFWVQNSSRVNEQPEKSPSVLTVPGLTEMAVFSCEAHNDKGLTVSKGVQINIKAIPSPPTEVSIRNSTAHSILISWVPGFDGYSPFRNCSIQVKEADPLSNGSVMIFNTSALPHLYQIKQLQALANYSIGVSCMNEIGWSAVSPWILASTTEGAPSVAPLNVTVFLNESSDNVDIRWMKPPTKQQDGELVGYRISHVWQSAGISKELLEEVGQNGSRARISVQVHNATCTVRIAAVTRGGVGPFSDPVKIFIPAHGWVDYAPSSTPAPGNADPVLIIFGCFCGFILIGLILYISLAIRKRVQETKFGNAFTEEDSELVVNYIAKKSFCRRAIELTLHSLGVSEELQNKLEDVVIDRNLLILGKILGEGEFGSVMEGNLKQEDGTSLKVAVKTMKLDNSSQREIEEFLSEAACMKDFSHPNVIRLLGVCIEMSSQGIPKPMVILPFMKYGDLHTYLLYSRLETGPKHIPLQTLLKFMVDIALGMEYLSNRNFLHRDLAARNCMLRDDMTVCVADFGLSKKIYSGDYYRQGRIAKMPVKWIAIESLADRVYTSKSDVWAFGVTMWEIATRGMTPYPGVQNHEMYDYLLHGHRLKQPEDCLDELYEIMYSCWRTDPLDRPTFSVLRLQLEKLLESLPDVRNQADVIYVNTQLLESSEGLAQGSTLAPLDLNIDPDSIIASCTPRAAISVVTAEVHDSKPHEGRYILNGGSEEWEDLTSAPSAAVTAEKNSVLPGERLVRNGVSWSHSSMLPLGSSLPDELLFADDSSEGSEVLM

c-Src = test: as above
Fes = Fes (UniProt P07332); test: as above
c-Src SH2 = test: SH2 binding enrichment of the phosphorylated peptide, bacterial display (enrichment ratio); higher = better substrate or ligand; peptides without Tyr show the background
SHP2-C SH2 = test: as above
Grb2 SH2 = Grb2 SH2 (UniProt P62993); test: as above
Grb2 SH2, sequence (P62993 whole entry, looked up, the tested form may be a part): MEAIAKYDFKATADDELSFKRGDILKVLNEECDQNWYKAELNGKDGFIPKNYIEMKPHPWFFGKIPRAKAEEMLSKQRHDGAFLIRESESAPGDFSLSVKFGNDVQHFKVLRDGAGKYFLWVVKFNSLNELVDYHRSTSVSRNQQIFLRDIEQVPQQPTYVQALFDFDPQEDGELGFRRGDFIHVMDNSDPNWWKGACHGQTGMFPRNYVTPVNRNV
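Throughout, for SH2 binding enrichment of the phosphorylated peptide, bacterial display: peptide library displayed on the E. coli surface as eCPX fusions, selected cells deep-sequenced, score is each peptide's frequency after selection divided by its frequency in the input.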
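Throughout, for phosphorylation enrichment, bacterial display: 11-residue human phosphosite peptides and single-mutation variants displayed on the E. coli surface, counted by deep sequencing, each peptide's frequency after selection divided by its frequency in the unselected input library; frequency after pTyr selection over input frequency; kinase dosed for 20-30% of maximal phosphorylation in three min.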

Fyn, sequence (P06241 whole entry, looked up): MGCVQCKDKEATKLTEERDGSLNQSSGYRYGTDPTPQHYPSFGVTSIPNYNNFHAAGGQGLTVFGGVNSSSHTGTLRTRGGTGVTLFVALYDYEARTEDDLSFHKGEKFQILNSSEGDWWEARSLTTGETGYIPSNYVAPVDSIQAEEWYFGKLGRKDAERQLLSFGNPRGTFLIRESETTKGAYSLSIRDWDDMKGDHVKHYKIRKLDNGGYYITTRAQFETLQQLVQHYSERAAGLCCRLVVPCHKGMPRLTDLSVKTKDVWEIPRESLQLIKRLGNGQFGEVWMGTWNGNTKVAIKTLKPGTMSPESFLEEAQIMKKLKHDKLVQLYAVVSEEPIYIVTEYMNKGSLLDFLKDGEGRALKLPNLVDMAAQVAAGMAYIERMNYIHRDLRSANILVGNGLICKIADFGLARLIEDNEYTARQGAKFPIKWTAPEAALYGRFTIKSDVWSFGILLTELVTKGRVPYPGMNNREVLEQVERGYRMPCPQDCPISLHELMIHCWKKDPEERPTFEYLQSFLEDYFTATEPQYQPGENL

Row | Sequence | phosphorylation enrichment (EPHB2) | phosphorylation enrichment (c-Abl (mouse)) | phosphorylation enrichment (Fer (mouse)) | phosphorylation enrichment (Fyn) | phosphorylation enrichment (Jak2) | phosphorylation enrichment (EPHB1) | phosphorylation enrichment (FGFR1) | phosphorylation enrichment (FGFR3) | phosphorylation enrichment (AncSZ) | phosphorylation enrichment (Hck) | phosphorylation enrichment (MERTK) | phosphorylation enrichment (c-Src) | phosphorylation enrichment (Fes) | SH2 binding enrichment (c-Src SH2) | SH2 binding enrichment (SHP2-C SH2) | SH2 binding enrichment (Grb2 SH2)
1 | HEDPMYDIIRD [RP9_Y142] | 3.85 | 1.27 | 4.2 | 5.63 | 1.29 | 3.51 | 0.718 | 0.687 | 1.94 | 5.56 | 5.24 | 5.36 | 1.48 | 1.92 | 0.664 | 0.63
2 | ADFFDYGHGLS [KHDRBS3_Y304_YF] | 0.38 | 0.76 | 0.433 | 0.438 | 1.03 | 0.585 | 0.459 | 0.727 | 0.709 | 0.522 | 0.434 | 0.449 | 0.905 | 0.437 | 0.741 | 0.863
3 | QRASDYYSQQM [GBP6_Y333_A331S] | 0.589 | 0.486 | 0.453 | 0.574 | 0.805 | 0.66 | 1.36 | 1.22 | 0.825 | 0.788 | 0.558 | 0.58 | 0.754 | 0.39 | 0.403 | 0.928
4 | ATDLAYFLVRK [ASL_Y375_YF] | 0.872 | 1.2 | 0.509 | 0.725 | 2.72 | 0.73 | 1.26 | 1.32 | 1.73 | 0.686 | 0.642 | 0.728 | 1.6 | 1.18 | 1.84 | 2.04
5 | VKANTYEKFWP [GATM_Y100_YF] | 0.374 | 0.704 | 0.595 | 1.47 | 0.717 | 0.74 | 0.317 | 0.487 | 0.627 | 1.07 | 1.8 | 2.69 | 0.793 | 0.946 | 0.569 | 0.931
6 | SHISGYAALRR [RAPH1_Y1226_T1228A] | 0.476 | 0.726 | 0.432 | 0.494 | 0.561 | 0.328 | 0.361 | 0.554 | 0.836 | 0.431 | 0.446 | 0.44 | 1.04 | 0.318 | 0.51 | 0.56
7 | RDHFGYRQSVT [CD55_Y245_YF] | 0.33 | 0.538 | 0.427 | 0.435 | 0.572 | 0.603 | 0.471 | 0.791 | 0.722 | 0.489 | 0.474 | 0.626 | 0.702 | 0.629 | 0.82 | 0.644
8 | RQQEVYLLFKQ [RARRES1_Y159_D158V_YF] | 0.589 | 1.64 | 0.576 | 0.892 | 1.37 | 0.915 | 0.789 | 1.19 | 1.57 | 0.66 | 0.478 | 0.788 | 1.48 | 0.853 | 1.05 | 1.34
9 | QHNPEYVQQAS [LRRC7_Y1058] | 0.604 | 0.641 | 0.73 | 0.486 | 0.544 | 0.542 | 0.486 | 0.65 | 0.843 | 0.69 | 0.423 | 0.597 | 0.867 | 0.561 | 0.64 | 0.712
10 | FLENFYDLEKD [MMP3_Y42_K45E_YF] | 0.546 | 0.764 | 0.433 | 4.33 | 1.21 | 0.531 | 0.504 | 0.679 | 1.33 | 1.39 | 0.516 | 2.23 | 1.34 | 0.677 | 0.907 | 0.978
11 | MGRVKYGAFIN [GLB1_Y485_N484K_YF] | 0.376 | 0.532 | 0.348 | 0.382 | 0.528 | 0.368 | 0.402 | 0.453 | 0.566 | 0.439 | 0.443 | 0.458 | 0.701 | 1.23 | 1.59 | 1.62
12 | VVEYGYEFFAK [PPP1CB_Y254_D252Y] | 0.82 | 1.09 | 0.835 | 0.609 | 1.47 | 0.798 | 0.762 | 0.995 | 2.57 | 0.72 | 0.601 | 0.719 | 1.56 | 0.946 | 0.675 | 0.942
13 | MNPPPYSQFLS [FGF23_Y154] | 0.44 | 0.536 | 0.711 | 0.478 | 0.687 | 0.467 | 0.508 | 0.567 | 0.585 | 0.511 | 0.543 | 1.38 | 0.706 | 0.541 | 0.489 | 0.742
14 | PTYEHYANSTQ [SLC12A3_Y70] | 2.33 | 0.753 | 0.828 | 2.56 | 0.924 | 1.2 | 0.492 | 0.807 | 1.05 | 1.53 | 0.912 | 5.29 | 1.2 | 2.47 | 0.663 | 1.75
15 | KLFRVYCDMNT [FGB_Y269_P265L_YF] | 0.619 | 0.838 | 0.523 | 0.463 | 1.17 | 0.777 | 0.548 | 0.701 | 1.11 | 0.471 | 0.432 | 0.463 | 1.33 | 0.918 | 0.65 | 0.75
16 | ADKAAYLQSMN [MYH2_Y389_L393M] | 0.419 | 0.591 | 0.411 | 0.415 | 0.609 | 0.545 | 0.47 | 0.654 | 0.499 | 0.436 | 0.366 | 0.459 | 0.761 | 0.449 | 0.525 | 0.788
17 | ASSPVYVPTTR [GATA6_Y188] | 0.479 | 0.524 | 0.406 | 0.429 | 0.44 | 0.397 | 0.323 | 0.428 | 0.525 | 0.646 | 0.493 | 0.51 | 0.539 | 0.433 | 0.71 | 0.876
18 | SSDPDYRAAVD [GLB1_Y154_L155R] | 0.589 | 0.669 | 0.507 | 0.449 | 0.793 | 0.508 | 0.556 | 0.635 | 0.926 | 0.527 | 0.471 | 0.409 | 0.988 | 0.627 | 0.668 | 0.78
19 | REAAAYLHGRL [AGXT_Y297] | 0.571 | 1.04 | 0.502 | 0.543 | 1 | 0.322 | 0.671 | 0.595 | 0.891 | 0.479 | 0.584 | 0.655 | 1.03 | 0.557 | 1.03 | 0.956
20 | KNNDGYIDYAE [MCFD2_Y135] | 0.658 | 0.656 | 0.464 | 0.536 | 1.01 | 0.538 | 0.606 | 0.736 | 1.17 | 0.625 | 0.474 | 0.465 | 1.13 | 1.01 | 0.695 | 0.945
21 | VKRNRYKDILP [PTPN12_Y64_K61R] | 0.695 | 0.514 | 0.49 | 0.689 | 0.528 | 0.575 | 0.463 | 0.47 | 0.65 | 0.579 | 0.553 | 0.628 | 0.561 | 0.483 | 0.364 | 0.541
22 | KLIETYFSKNF [PLP1_Y50_YF] | 0.452 | 0.668 | 0.4 | 0.474 | 0.87 | 0.474 | 0.449 | 0.589 | 0.942 | 0.519 | 0.427 | 0.558 | 0.99 | 0.542 | 0.626 | 0.9
23 | NVDGKYSYLKV [GRM3_Y478_G475D] | 0.59 | 0.557 | 0.515 | 0.444 | 0.825 | 0.569 | 0.563 | 0.507 | 0.705 | 0.554 | 0.559 | 0.432 | 0.878 | 3.85 | 1.35 | 0.752
24 | GIVEDYRPPFC [ACVRL1_Y421_Y426C] | 0.532 | 0.782 | 0.437 | 0.492 | 0.883 | 0.511 | 0.598 | 0.599 | 0.994 | 0.406 | 0.451 | 0.517 | 1.01 | 0.569 | 0.713 | 0.887
25 | SRDDFYETIAM [NPY1R_Y347_D346Y_YF] | 0.68 | 0.773 | 7.71 | 1.44 | 1.23 | 1.02 | 0.5 | 0.871 | 1.3 | 2.04 | 0.826 | 1.06 | 1.21 | 0.916 | 0.73 | 0.947
26 | FSKQIYKGMVA [PCDH15_Y931_R929Q] | 0.342 | 0.42 | 0.331 | 0.502 | 0.472 | 0.351 | 0.337 | 0.432 | 0.441 | 0.384 | 0.346 | 0.365 | 0.479 | 0.471 | 0.654 | 0.879
27 | FRIDHYLGKEM [G6PD_Y202_YF] | 0.41 | 0.54 | 0.41 | 0.427 | 0.675 | 0.448 | 0.455 | 0.671 | 0.808 | 0.49 | 0.371 | 0.32 | 1.63 | 0.625 | 0.607 | 0.932
28 | NNPAYYVLEGV [INPPL1_Y987] | 0.69 | 0.711 | 0.525 | 1.65 | 4.89 | 0.764 | 15.9 | 13.1 | 1.15 | 1.11 | 9.04 | 1.63 | 0.997 | 3.65 | 1.02 | 0.803
29 | DDLEVYLKHLL [SACS_Y3477] | 0.503 | 0.61 | 0.653 | 0.482 | 0.822 | 0.505 | 0.479 | 0.697 | 1.03 | 0.58 | 0.409 | 0.558 | 0.97 | 0.544 | 0.605 | 0.752
